From patent US20210388087A1 (Chugai, published 2021)
Where a chain is given by its changes, count along the chain named. Names and notes keep the numbering of the source.

T1: Human CD3eg linker (human)
T1 construct: Single chain: epsilon and gamma subunits of human CD3 joined by a 29-mer linker, Flag-tag at the C-terminus; also called recombinant human CD3
T1 chain: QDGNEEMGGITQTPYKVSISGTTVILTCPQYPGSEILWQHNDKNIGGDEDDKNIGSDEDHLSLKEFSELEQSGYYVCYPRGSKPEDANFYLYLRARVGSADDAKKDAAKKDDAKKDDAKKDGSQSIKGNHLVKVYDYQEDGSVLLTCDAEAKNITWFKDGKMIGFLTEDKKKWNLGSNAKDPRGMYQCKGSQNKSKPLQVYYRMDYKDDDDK

B1: H183/L072 VH N53S (antibody, name in Kabat numbering, V domains shown)
VH: QVQLVESGGGLVQPGRSLRLSCAASGFTFSNAWMHWVRQAPGKGLEWVAQIKDKGSAYAAYYAPSVKGRFTISRDDSKNSIYLQMNSLKTEDTAVYYCHYVHYASASTVLPAFGVDAWGQGTTVTVSS
VL: DIVMTQSPLSLPVTPGEPASISCQASQELVHMNRNTYLHWYQQKPGQAPRLLIYKVSNRFPGVPDRFSGSGSGTDFTLKISRVEAEDVGVYYCAQGTSVPFTFGQGTKLEIK
B2: H183/L072 VH N53T (antibody, name in Kabat numbering, V domains shown)
VH: B1 VH with S56T
VL: B1 VL
B3: H183/L072 VH N53V (antibody, name in Kabat numbering, V domains shown)
VH: B1 VH with S56V
VL: B1 VL
B4: H183/L072 VH N53W (antibody, name in Kabat numbering, V domains shown)
VH: B1 VH with S56W
VL: B1 VL
B5: H183/L072 VH N53Y (antibody, name in Kabat numbering, V domains shown)
VH: B1 VH with S56Y
VL: B1 VL
B6: H183/L072 VH P61A (antibody, name in Kabat numbering, V domains shown)
VH: B1 VH with S56N, P64A
VL: B1 VL
B7: H183/L072 VH P61I (antibody, name in Kabat numbering, V domains shown)
VH: B1 VH with S56N, P64I
VL: B1 VL
B8: H183/L072 VH P61L (antibody, name in Kabat numbering, V domains shown)
VH: B1 VH with S56N, P64L
VL: B1 VL
B9: H183/L072 VH P61M (antibody, name in Kabat numbering, V domains shown)
VH: B1 VH with S56N, P64M
VL: B1 VL
B10: H183/L072 VH P100eA (antibody, name in Kabat numbering, V domains shown)
VH: B1 VH with S56N, P111A
VL: B1 VL
B11: H183/L072 VH P100eI (antibody, name in Kabat numbering, V domains shown)
VH: B1 VH with S56N, P111I
VL: B1 VL
B12: H183/L072 VH P100eL (antibody, name in Kabat numbering, V domains shown)
VH: B1 VH with S56N, P111L
VL: B1 VL
B13: H183/L072 VH P100eM (antibody, name in Kabat numbering, V domains shown)
VH: B1 VH with S56N, P111M
VL: B1 VL
B14: H183/L072 VH Q50A (antibody, name in Kabat numbering, V domains shown)
VH: B1 VH with Q50A, S56N
VL: B1 VL
B15: H183/L072 VH Q50D (antibody, name in Kabat numbering, V domains shown)
VH: B1 VH with Q50D, S56N
VL: B1 VL
B16: H183/L072 VH Q50E (antibody, name in Kabat numbering, V domains shown)
VH: B1 VH with Q50E, S56N
VL: B1 VL
B17: H183/L072 VH Q50F (antibody, name in Kabat numbering, V domains shown)
VH: B1 VH with Q50F, S56N
VL: B1 VL
B18: H183/L072 VH Q50G (antibody, name in Kabat numbering, V domains shown)
VH: B1 VH with Q50G, S56N
VL: B1 VL
B19: H183/L072 VH Q50H (antibody, name in Kabat numbering, V domains shown)
VH: B1 VH with Q50H, S56N
VL: B1 VL
B20: H183/L072 VH Q50I (antibody, name in Kabat numbering, V domains shown)
VH: B1 VH with Q50I, S56N
VL: B1 VL
B21: H183/L072 VH Q50K (antibody, name in Kabat numbering, V domains shown)
VH: B1 VH with Q50K, S56N
VL: B1 VL
B22: H183/L072 VH Q50L (antibody, name in Kabat numbering, V domains shown)
VH: B1 VH with Q50L, S56N
VL: B1 VL
B23: H183/L072 VH Q50M (antibody, name in Kabat numbering, V domains shown)
VH: B1 VH with Q50M, S56N
VL: B1 VL
B24: H183/L072 VH Q50N (antibody, name in Kabat numbering, V domains shown)
VH: B1 VH with Q50N, S56N
VL: B1 VL
B25: H183/L072 VH Q50P (antibody, name in Kabat numbering, V domains shown)
VH: B1 VH with Q50P, S56N
VL: B1 VL
B26: H183/L072 VH Q50R (antibody, name in Kabat numbering, V domains shown)
VH: B1 VH with Q50R, S56N
VL: B1 VL
B27: H183/L072 VH Q50S (antibody, name in Kabat numbering, V domains shown)
VH: B1 VH with Q50S, S56N
VL: B1 VL
B28: H183/L072 VH Q50T (antibody, name in Kabat numbering, V domains shown)
VH: B1 VH with Q50T, S56N
VL: B1 VL
B29: H183/L072 VH Q50V (antibody, name in Kabat numbering, V domains shown)
VH: B1 VH with Q50V, S56N
VL: B1 VL
B30: H183/L072 VH Q50W (antibody, name in Kabat numbering, V domains shown)
VH: B1 VH with Q50W, S56N
VL: B1 VL
B31: H183/L072 VH Q50Y (antibody, name in Kabat numbering, V domains shown)
VH: B1 VH with Q50Y, S56N
VL: B1 VL
B32: H183/L072 VH S30A (antibody, name in Kabat numbering, V domains shown)
VH: B1 VH with S30A, S56N
VL: B1 VL
B33: H183/L072 VH S30D (antibody, name in Kabat numbering, V domains shown)
VH: B1 VH with S30D, S56N
VL: B1 VL

Target: T1, Human CD3eg linker
Experiment: Biacore SPR, vs template H183/L072
In the case of B1, the “fold change of affinity” value is reported as 0.8 fold. With B2 the “fold change of affinity” value was 0.6 fold. With B3 the “fold change of affinity” value was 0.5 fold. With B4 the “fold change of affinity” value was 1.2 fold. In the case of B5, the “fold change of affinity” value is reported as 0.9 fold. B6 was tested, and the “fold change of affinity” value was 1.9 fold. For B7, the “fold change of affinity” value was 1.8 fold. In the case of B8, the “fold change of affinity” value is reported as 1.8 fold. With B9 the “fold change of affinity” value was 1.8 fold. In the case of B10, the “fold change of affinity” value is reported as 1.2 fold. With B11 the “fold change of affinity” value was 1.4 fold. With B12 the “fold change of affinity” value was 1.3 fold. For B13, the “fold change of affinity” value was 1.8 fold. For B14, the “fold change of affinity” value was 0 fold. For B15, the “fold change of affinity” value was 0 fold. With B16 the “fold change of affinity” value was 0 fold. B17 was tested, and the “fold change of affinity” value was 0.3 fold. In the case of B18, the “fold change of affinity” value is reported as 0 fold. In the case of B19, the “fold change of affinity” value is reported as 0.3 fold. In the case of B20, the “fold change of affinity” value is reported as 0.4 fold. For B21, the “fold change of affinity” value was 0 fold. B22 was tested, and the “fold change of affinity” value was 0.2 fold. B23 was tested, and the “fold change of affinity” value was 0.1 fold. B24 was tested, and the “fold change of affinity” value was 0 fold. B25 was tested, and the “fold change of affinity” value was 0 fold. B26 was tested, and the “fold change of affinity” value was 0 fold. In the case of B27, the “fold change of affinity” value is reported as 0 fold. In the case of B28, the “fold change of affinity” value is reported as 0 fold. For B29, the “fold change of affinity” value was 0 fold. B30 was tested, and the “fold change of affinity” value was 0 fold. B31 was tested, and the “fold change of affinity” value was 0.9 fold. B32 was tested, and the “fold change of affinity” value was 0.8 fold. B33 was tested, and the “fold change of affinity” value was 1 fold.
